{"source": "paper PMC4405178", "about": "(Biochemistry, 2015)", "key": {"[1]": {"molecular_target": "Ste2p R58Q, S95Y (Saccharomyces cerevisiae) (UniProt D6VTK4)", "sequence (D6VTK4 1-303 R58Q/S95Y)": "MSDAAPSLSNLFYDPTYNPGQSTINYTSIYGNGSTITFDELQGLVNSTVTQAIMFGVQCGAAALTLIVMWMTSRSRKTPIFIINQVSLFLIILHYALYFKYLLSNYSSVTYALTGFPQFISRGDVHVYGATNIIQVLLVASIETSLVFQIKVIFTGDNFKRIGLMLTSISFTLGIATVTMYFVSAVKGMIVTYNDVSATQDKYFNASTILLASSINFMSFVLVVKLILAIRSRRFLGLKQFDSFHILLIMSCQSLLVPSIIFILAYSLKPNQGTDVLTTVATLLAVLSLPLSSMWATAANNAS", "experiment": "flow cytometry on cells"}, "[2]": {"molecular_target": "Ste2p R58L, S95Y (Saccharomyces cerevisiae) (UniProt D6VTK4)", "sequence (D6VTK4 1-303 R58L/S95Y)": "as the sequence (D6VTK4 1-303 R58Q/S95Y) above, with Q58L counted along it", "experiment": "flow cytometry on cells"}}, "data": [{"substance": "[K^7(NBD),Nle^12] α-factor (peptide)", "values": [{"measurement": "ligand binding at 300 nM ligand, % of wild-type levels (% of wild-type levels)", "setting": "[1]", "result": 16.8}, {"measurement": "ligand binding at 300 nM ligand, % of wild-type levels (% of wild-type levels)", "setting": "[2]", "result": 13.7}]}]}
